# Ends that are not written are not given here. * marks the point of attachment. Myristoyl = CCCCCCCCCCCCCC(=O)*
# Tests used:
# PKC-δ [1] = biological target: T1, PKC-δ (Homo sapiens, UniProt Q05655, DEL151-160); test: PKC-δ activity assay in situ in 293A cells; assay type: cell-based; conditions: myristoylated peptide, FIG. 5C
# T1 construct: The human PKC-δ open reading frame was also cloned in the same vectors; expressed in transfected cells; host or cells: HEK 293A
# Procedure: (§1) The PKC-δ activity assay in situ was performed by a modification of procedures detailed by Williams and Schrier (Williams et al., Glucose-Induced Protein Kinase C Activity Regulates Arachidonic Acid Release and Eicosanoid Production by Cultured Glomerular Mesangial Cells,” J. Clin. Invest. 92:2889-2896 (1993), which is hereby incorporated by reference in its entirety). Cells were seeded into 48-well plates and transfected with 0.1 μg/well pcDNA3-hBVR. After 24 h, the medium was replaced with a starvation medium (0.1% serum) and incubation continued for another 24 h to synchronize cells. In some wells, PKC inhibitor Rottlerin (20 μM) was added 30 min before addition of PMA (100 nM) for 15 min. In some wells, hBVR-derived peptides were introduced to cells in their myristoylated form. Cells were washed with medium and incubated for 10 min at 30° C. in 50 μl of kinase assay buffer (137 mM NaCl, 5.4 mM KCl, 10 mM MgCl2, 0.3 mM Na2HPO4, 0.4 mM KH2PO4, 25 mM β-glycerophosphate, 5.5 mM D-glucose, 5 mM EGTA, 1 mM CaCl2, 20 mM HEPES (pH 7.2), 50 μg/ml digitonin, 120 μg/ml of PKC-δ specific substrate (ARRKRKGSFFGG; SEQ ID NO: 52) and 100 μM ATP labeled with 10 μCi/ml [γ-^32P]-ATP). The reaction was stopped with the addition of 25 μl of ice-cold 30% (wt/vol) TCA. The TCA-soluble fraction samples were transferred to p81 phospho-cellulose filters. […]
# PKC-δ [2] = biological target: T2, PKC-δ (Homo sapiens, UniProt Q05655); test: PMA-induced PKC-δ membrane translocation, confocal microscopy; assay type: cell-based; design: inserting the open reading frame of PKC-δ into the plasmid pDsRed2-C1; expressed in transfected cells; host or cells: 293A; conditions: 10 μM myristoylated peptide, PMA 15 min, FIG. 5E
# Procedure: Confocal microscopy: Experimental protocols were based on those described by Edwards et al., “Carboxyl-Terminal Phosphorylation Regulates the Function and Subcellular Localization of Protein Kinase C betall,” J. Biol. Chem. 274:6461-6468 (1999), which is hereby incorporated by reference in its entirety. 293A cells were grown in a chamber slide system (Nalge-Nunc International Corp., Naperville, Ill.). Cells were transfected with pEGFP-hBVR and/or the plasmid expressing Ds2-Red-PKC-δ fusion protein. After a 24 h starvation period, cells were fixed for 10 min in 4% Para-formaldehyde in PBS and permeabilized with 1% Triton X-100 in PBS. The cells were mounted with Vectashield (Vector Laboratories, Inc. Burlingame, Calif.), containing DAPI to visualize the nuclei. Non-transfected cells were permeabilized as above, treated with 1:150 dilution of polyclonal anti-PKC-δ antibodies, washed, blocked, and then treated with polyclonal anti-hBVR antibodies. The PBS-washed cells were then treated with Rhodamine-red-conjugated donkey anti-rabbit IgG antibodies (Jackson ImmunoResearch, West Grove, Pa.) for 30 min, followed by mounting. A Leica TCS SP (model DMRE) confocal microscope was used (Maines et al., “Human Biliverdin Reductase: A Previously Unknown Activator of Protein Kinase C-βII,” J. Biol. Chem. 282:8110-8122 (2007), which is hereby incorporated by reference in its entirety).
# recombinant human PKC-δ = test: PKC-δ kinase assay in vitro (p81 filter / autoradiography); assay type: biochemical
# Procedure: Measurement of PKC-δ activity: In vitro kinase activity assays were performed with active recombinant human PKC-δ kinase (as a GST fusion protein). PKC-δ assay in vitro was performed using 5 ng purified enzyme in a 50 μl assay containing 50 mM HEPES pH 7.4, 10 mM MgCl2, 0.2 mM DTT, sonicated lipid activators (0.5 μg phosphatidylserine and 0.05 μg diacylglycerol) or lipid activators plus PMA (as indicated in appropriate experiments) and PKC-δ substrates. The reaction was started by the addition of 50 μM ATP labeled with 5 μCi [γ-^32P]-ATP. Incubation was performed for 15 min at 30° C., unless otherwise stated. The reaction was terminated on ice, either by the addition of Laemmli buffer followed by SDS-PAGE, transferred to PVDF membrane, and autoradiography, or by the addition of 1 volume 10% phosphoric acid for p81 transfer as described below. For autophosphorylation of PKC-δ 20 μM ATP was used to start the 40-min reaction.
# When hBVR or its mutants were tested for their effect on PKC-δ activity, they were pre-incubated for 5 min at room temperature with the PKC prior to substrate addition. The hBVR-derived peptides were used at concentrations indicated in appropriate figures.
# When hBVR or its mutants were assayed as the sole substrates for PKC, the incubation conditions were as described above and the incubation was for 40 min at 30° C. unless specified otherwise. The reaction was terminated by the addition of Laemmli buffer, and the reaction products were detected by SDS-PAGE, transfer to PVDF membrane, and autoradiography.
# Measurement of PKC-δ activity: PKC-δ assay in vitro was performed using 0.1 ng/μl purified recombinant human PKC-δ kinase with reaction conditions specified by the manufacturer. Effector molecules such as hBVR or peptides were added 5 min prior to substrate. The reaction was started by the addition of [γ-^32P]-ATP (Lerner-Marmarosh et al., “Human Biliverdin Reductase: A Member of the Insulin Receptor Substrate Family with Serine/Threonine/Tyrosine Kinase Activity,” Proc. Natl. Acad. Sci. U.S.A. 102(20):7109-7114 (2005), which is hereby incorporated by reference in its entirety). Reaction products were detected either by gel electrophoresis and autoradiography or by the p81 filter assay. PKC-δ activity on agarose beads was also measured. Cell lysates were immunoprecipitated with anti-PKC-δ antibody followed by protein A/G agarose. The immunoprecipitates were used in kinase reactions containing 50 μM PKC-δ specific peptide substrate as above; incorporation of ^32P was measured by p81 method.
# PKC-δ [3] = biological target: T2, PKC-δ; test: PKC-δ activity assay in situ in 293A cells; assay type: cell-based; design: The human PKC-δ open reading frame was also cloned in the same vectors; expressed in transfected cells; host or cells: HEK 293A; conditions: myristoylated peptide, last 2 h of starvation, FIG. 5B
# Procedure: as §1
# T2 sequence (Q05655 whole entry, the tested form may be a part): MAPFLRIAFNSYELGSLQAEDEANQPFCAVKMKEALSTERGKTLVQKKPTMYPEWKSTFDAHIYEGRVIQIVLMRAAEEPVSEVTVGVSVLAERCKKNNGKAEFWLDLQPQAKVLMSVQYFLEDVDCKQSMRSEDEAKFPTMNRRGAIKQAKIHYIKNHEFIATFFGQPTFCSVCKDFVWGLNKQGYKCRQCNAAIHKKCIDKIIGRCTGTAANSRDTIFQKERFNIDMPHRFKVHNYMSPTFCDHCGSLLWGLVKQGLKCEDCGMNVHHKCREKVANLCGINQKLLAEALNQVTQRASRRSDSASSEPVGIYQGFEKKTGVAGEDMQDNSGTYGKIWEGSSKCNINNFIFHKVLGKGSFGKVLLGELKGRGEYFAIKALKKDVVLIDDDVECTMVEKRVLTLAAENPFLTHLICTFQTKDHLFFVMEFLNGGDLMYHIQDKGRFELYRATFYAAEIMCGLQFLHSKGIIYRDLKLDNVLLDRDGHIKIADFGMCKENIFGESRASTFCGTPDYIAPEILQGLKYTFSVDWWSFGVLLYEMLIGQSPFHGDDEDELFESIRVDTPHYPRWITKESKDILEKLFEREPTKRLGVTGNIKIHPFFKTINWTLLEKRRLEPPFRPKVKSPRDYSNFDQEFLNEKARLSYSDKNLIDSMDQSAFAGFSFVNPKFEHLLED
# T1 sequence (Q05655 with tags, fused parts or gaps DEL151-160): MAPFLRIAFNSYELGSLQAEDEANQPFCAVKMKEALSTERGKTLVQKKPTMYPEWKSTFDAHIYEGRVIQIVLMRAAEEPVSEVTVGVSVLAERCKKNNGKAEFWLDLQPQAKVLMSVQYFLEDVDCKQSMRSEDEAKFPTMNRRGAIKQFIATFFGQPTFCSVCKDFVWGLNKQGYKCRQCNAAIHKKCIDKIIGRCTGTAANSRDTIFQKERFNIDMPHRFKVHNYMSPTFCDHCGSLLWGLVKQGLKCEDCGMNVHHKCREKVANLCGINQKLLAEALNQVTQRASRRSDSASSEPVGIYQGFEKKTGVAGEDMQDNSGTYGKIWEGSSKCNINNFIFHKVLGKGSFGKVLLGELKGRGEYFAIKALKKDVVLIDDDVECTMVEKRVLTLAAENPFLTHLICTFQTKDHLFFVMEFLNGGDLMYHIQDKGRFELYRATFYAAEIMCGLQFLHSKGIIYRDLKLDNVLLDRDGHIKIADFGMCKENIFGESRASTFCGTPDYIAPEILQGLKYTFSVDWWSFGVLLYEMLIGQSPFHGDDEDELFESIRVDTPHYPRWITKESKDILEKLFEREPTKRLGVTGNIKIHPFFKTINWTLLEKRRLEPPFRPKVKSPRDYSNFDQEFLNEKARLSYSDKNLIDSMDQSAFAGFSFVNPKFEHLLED
sequence,measurement,setting,value
KRNRYLSF (Myristoyl-KRNRYLSF),activity of constitutively active PKC-δ in cells,PKC-δ [1],effective inhibitor
same,PKC-δ translocation to the cell membrane upon PMA,PKC-δ [2],effectively inhibited
same,inhibition of phosphorylation of the commercial substrate,"recombinant human PKC-δ; 50 μM substrate/10 μM inhibitor, FIG. 5A",More than 90%
same,sensitivity of PKC-δ activity to the inhibitory peptide,"recombinant human PKC-δ; MBP substrate, increasing peptide concentrations, FIG. 5D",most sensitive
same,PKC-δ activity in cells transfected with pcDNA-PKC-δ and stimulated with PMA,PKC-δ [3],inhibitory activity

# Reference: patent US9598677B2, “Use of human biliverdin reductase and fragments thereof for the treatment of protein kinase C-delta and ERK related conditions” (University of Rochester, priority 2009, dated 2017)
